Results on 27 compounds are retold here after US7407939B2, “Protein kinase inhibitors comprising ATP mimetics conjugated to peptides or peptidomimetics” (CureGenics Ltd., priority 2001, dated 2008).

Read-outs that look alike come from different tables or passages of the source. Where a SMILES comes first, the peptide text is derived from it. Where no end group is shown, it is not given here. Side-chain parts run from the residue outwards. [ ]: non-standard residue; d: D form. The star is where a group is joined. SO2‑IQ = 5-aminoethylsulfoneamide isoquinoline, O=S(=O)(NCCN*)c1cccc2cnccc12; X1 = 5‑aminoethylsulfonamide isoquinoline, O=S(=O)(NCCN*)c1cccc2cnccc12; hLeu = CC(C)CC[C@H](N)C(=O)O; Nle = CCCC[C@H](N)C(=O)O; Orn = NCCC[C@H](N)C(=O)O; Dab = NCC[C@H](N)C(=O)O; Nva = CCC[C@H](N)C(=O)O; Abu = CC[C@H](N)C(=O)O; Dap = NC[C@H](N)C(=O)O; Ph2 = not defined here; GlyNH2 = aminoglycine; βAla = NCCC(=O)O

For this experiment, the target named is T1, PKB (Homo sapiens, UniProt P31749).
T1 construct: His; HA; made in house
T1 sequence (P31749 whole entry, species assumed): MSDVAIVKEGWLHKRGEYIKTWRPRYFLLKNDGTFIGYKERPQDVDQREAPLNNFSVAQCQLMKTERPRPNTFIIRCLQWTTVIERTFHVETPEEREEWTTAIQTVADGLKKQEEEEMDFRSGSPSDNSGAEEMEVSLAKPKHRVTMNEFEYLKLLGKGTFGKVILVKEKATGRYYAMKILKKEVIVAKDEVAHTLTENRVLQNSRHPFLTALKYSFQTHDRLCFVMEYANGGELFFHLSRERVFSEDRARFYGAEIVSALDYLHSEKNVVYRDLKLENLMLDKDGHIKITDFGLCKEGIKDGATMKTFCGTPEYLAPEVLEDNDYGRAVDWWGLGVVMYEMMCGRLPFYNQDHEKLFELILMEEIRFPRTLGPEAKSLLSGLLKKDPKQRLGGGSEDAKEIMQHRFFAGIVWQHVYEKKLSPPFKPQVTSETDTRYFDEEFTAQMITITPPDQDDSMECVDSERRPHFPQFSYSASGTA
Kind of experiment: PKB in vitro kinase activity assay (soluble His-HA-PKB / SPA bead screening). The experiment is classed as biochemical. The arrangement: % Inhibition PKB I / % Inhibition PKB II: concentration or dose not given beside the values. Conditions: for PKB-kinase (spa) Assay 1, % inhibition of kinase activity / PKB-kinase (spa) Assay 2, % inhibition of kinase activity: 1 μM compound concentration.

Setting [1] is: plate screening, peptide moiety alone.

Procedure: The enzyme activity measurement is performed as described in the assay for PKA.
Kinase reaction was carried out in final volume of 50 μl. […] The kinase reaction was started by adding 10 μl of 2 μM cold ATP and 0.25 μCi of [γ^33P]-ATP in kinase buffer. The plates were incubated at 27° C. for 1 hr. At the end of the incubation the reaction was stopped by 200 μl of PBS containing 0.1% Triton X-100, 5 mM EDTA, 1 mM ATP and 0.3 mg/ml of Streptavidin-coated SPA bead (Amersham Pharmacia Biotech). After 15 min incubation at room temperature, the reaction mixtures were filtered using Packard GF/B 96-well plates. The plates were washed twice with 2M NaCl and 1% orthophosphoric acid followed by ethanol wash and 1 h air-dry. The radioactivity was counted using microplate counter Packard Top Count

Turning to “60020-89: Arg-Pro-Arg-Nle-Glu(bAla-5-aminoethylsulfonamide isoquinoline)-Dab-Phe (RPR[Nle]E([βAla-X1])[Dab]F)”, the “PKB-kinase (spa) Assay 1, % inhibition of kinase activity” value (shortened to “PKB-kinase (spa) Assay 1, % inhibition”) is 8% and the “PKB-kinase (spa) Assay 2, % inhibition of kinase activity” value (from here on “PKB-kinase (spa) Assay 2, % inhibition”) was 48%.

As to “60020-6: Arg-Pro-Arg-Dap-Glu(5-aminoethylsulfonamide isoquinoline)-Ala-Hol (RPR[Dap]E(X1)A[hLeu])”, the “PKB-kinase (spa) Assay 1, % inhibition” value was determined as 32% and the “PKB-kinase (spa) Assay 2, % inhibition” value was 14%.

On to “60020-78: Arg-Pro-Arg-Orn-Glu(bAla-5-aminoethylsulfonamide isoquinoline)-Ala-Hol (RPR[Orn]E([βAla-X1])A[hLeu])”, for which the “PKB-kinase (spa) Assay 1, % inhibition” value turned out to be 21% and the “PKB-kinase (spa) Assay 2, % inhibition” value is reported as 24%.

On to “60020-15: Arg-Pro-Arg-Orn-Glu(5-aminoethylsulfonamide isoquinoline)-Nva-Phe (RPR[Orn]E(X1)[Nva]F)”, for which the “PKB-kinase (spa) Assay 1, % inhibition” value is given as 31% and the “PKB-kinase (spa) Assay 2, % inhibition” value is on record as 44%.

Consider “60020-87: Arg-Pro-Arg-Abu-Glu(bAla-5-aminoethylsulfonamide isoquinoline)-Nva-Phe (RPR[Abu]E([βAla-X1])[Nva]F)”, for which the “PKB-kinase (spa) Assay 1, % inhibition” value is −50% and the “PKB-kinase (spa) Assay 2, % inhibition” value is given as 5%.

Turning to “60020-90: Arg-Pro-Arg-Nle-Glu(bAla-5-aminoethylsulfonamide isoquinoline)-Dab-Hol (RPR[Nle]E([βAla-X1])[Dab][hLeu])”, the “PKB-kinase (spa) Assay 1, % inhibition” value stood at 19% and the “PKB-kinase (spa) Assay 2, % inhibition” value was found to be 27%.

Turning to “RPRMSSF-NH2 (C-terminus assumed) [AR 60003-50, Arg-Pro-Arg-Met-Ser-Ser-Phe]”, the IC50 (Table 3, linear 7-mer peptides, read-out: Activity PKB) stood at 2.5 µM.

As to “6106 (RPRT[Dap](SO2‑IQ)SF) [compound 6106]”, under “chimeric PTR compounds (peptide conjugated to isoquinoline small molecule), read-out: PKB IC50”, the IC50 worked out at 10 µM.

Regarding “60020-74: Arg-Pro-Arg-Orn-Glu(bAla-5-aminoethylsulfonamide isoquinoline)-Dab-Hol (RPR[Orn]E([βAla-X1])[Dab][hLeu])”, the “PKB-kinase (spa) Assay 1, % inhibition” value is listed as 33% and the “PKB-kinase (spa) Assay 2, % inhibition” value is recorded as 41%.

For the compound “60020-96: Arg-Pro-Arg-Nle-Glu(bAla-5-aminoethylsulfonamide isoquinoline)-Nva-Hol (RPR[Nle]E([βAla-X1])[Nva][hLeu])”, the “PKB-kinase (spa) Assay 1, % inhibition” value came out at 0% and the “PKB-kinase (spa) Assay 2, % inhibition” value came out at 54%.

For the compound “60020-94: Arg-Pro-Arg-Nle-Glu(bAla-5-aminoethylsulfonamide isoquinoline)-Ala-Hol (RPR[Nle]E([βAla-X1])A[hLeu])”, the “PKB-kinase (spa) Assay 1, % inhibition” value is 9% and the “PKB-kinase (spa) Assay 2, % inhibition” value was determined as 31%.

On to “60006-11B (RPR[Nva][GlyNH2][Dap][Ph2]; reading uncertain) [Compound 60006-11B]”, for which the “% Inhibition PKB I” value under setting [1] turned out to be 51%. Besides, the “% Inhibition PKB II” value (plate screening, peptide moiety alone, PKB II) is reported as 44%.

In the case of “60020-69: Arg-Pro-Arg-Dap-Glu(bAla-5-aminoethylsulfonamide isoquinoline)-Ala-Phe (RPR[Dap]E([βAla-X1])AF)”, the “PKB-kinase (spa) Assay 1, % inhibition” value came to 36% and the “PKB-kinase (spa) Assay 2, % inhibition” value was 57%.

For “60020-53: Arg-Pro-Arg-Abu-Glu(Gly-5-aminoethylsulfonamide isoquinoline)-Ala-Phe (RPR[Abu]E([Gly-X1])AF)”, the “PKB-kinase (spa) Assay 1, % inhibition” value is given as 20% and the “PKB-kinase (spa) Assay 2, % inhibition” value was 13%.

Consider “60020-14: Arg-Pro-Arg-Orn-Glu(5-aminoethylsulfonamide isoquinoline)-Ala-Hol (RPR[Orn]E(X1)A[hLeu])”, for which the “PKB-kinase (spa) Assay 1, % inhibition” value came out at 26% and the “PKB-kinase (spa) Assay 2, % inhibition” value worked out at 31%.

On to “60020-54: Arg-Pro-Arg-Abu-Glu(Gly-5-aminoethylsulfonamide isoquinoline)-Ala-Hol (RPR[Abu]E([Gly-X1])A[hLeu])”, for which the “PKB-kinase (spa) Assay 1, % inhibition” value amounted to 34% and the “PKB-kinase (spa) Assay 2, % inhibition” value worked out at 45%.

For the compound “60020-17: Arg-Pro-Arg-Abu-Glu(5-aminoethylsulfonamide isoquinoline)-Dab-Phe (RPR[Abu]E(X1)[Dab]F)”, the “PKB-kinase (spa) Assay 1, % inhibition” value is recorded as 34% and the “PKB-kinase (spa) Assay 2, % inhibition” value was 38%.

For the compound “60002-50 (RPRTSA[hLeu]) [Compound 60002-50]”, the “% Inhibition PKB I” value under setting [1] stood at 62%.

For “60020-22: Arg-Pro-Arg-Abu-Glu(5-aminoethylsulfonamide isoquinoline)-Ala-Hol (RPR[Abu]E(X1)A[hLeu])”, the “PKB-kinase (spa) Assay 1, % inhibition” value is −5% and the “PKB-kinase (spa) Assay 2, % inhibition” value is reported as −2%.

For `CCCC[C@H](NC(=O)[C@H](CO)NC(=O)[C@H](CO)NC(=O)[C@H](CCCC)NC(=O)[C@H](CCCNC(=N)N)NC(=O)[C@@H]1CCCN1C(=O)[C@@H](N)CCCNC(=N)N)C(N)=O` [AR 60003-62, Arg-Pro-Arg-Nle-Ser-Ser-Nle] (H-RPR[Nle]SS[Nle]-NH2), the inhibition (usually how much of the control response was suppressed) at 1 µM (at 1 μM, Table 3, read-out: inhibition (PKB)) came out at 70%.

With “60020-63: Arg-Pro-Arg-Nle-Glu(Gly-5-aminoethylsulfonamide isoquinoline)-Nva-Phe (RPR[Nle]E([Gly-X1])[Nva]F)”, the “PKB-kinase (spa) Assay 1, % inhibition” value is 17% and the “PKB-kinase (spa) Assay 2, % inhibition” value is reported as 19%.

On to “60020-4: Arg-Pro-Arg-Dap-Glu(5-aminoethylsulfonamide isoquinoline)-Orn-Hol (RPR[Dap]E(X1)[Orn][hLeu])”, for which the “PKB-kinase (spa) Assay 1, % inhibition” value is reported as 34% and the “PKB-kinase (spa) Assay 2, % inhibition” value is listed as 53%.

For “60020-64: Arg-Pro-Arg-Nle-Glu(Gly-5-aminoethylsulfonamide isoquinoline)-Nva-Hol (RPR[Nle]E([Gly-X1])[Nva][hLeu])”, the “PKB-kinase (spa) Assay 1, % inhibition” value was 25% and the “PKB-kinase (spa) Assay 2, % inhibition” value worked out at 26%.

Consider “60020-47: Arg-Pro-Arg-Orn-Glu(Gly-5-aminoethylsulfonamide isoquinoline)-Nva-Phe (RPR[Orn]E([Gly-X1])[Nva]F)”, for which the “PKB-kinase (spa) Assay 1, % inhibition” value was determined as 21% and the “PKB-kinase (spa) Assay 2, % inhibition” value was 33%.

Regarding “60020-39: Arg-Pro-Arg-Dap-Glu(Gly-5-aminoethylsulfonamide isoquinoline)-Nva-Phe (RPR[Dap]E([Gly-X1])[Nva]F)”, the “PKB-kinase (spa) Assay 1, % inhibition” value stood at 17% and the “PKB-kinase (spa) Assay 2, % inhibition” value came to 16%.

As for “60020-56: Arg-Pro-Arg-Abu-Glu(Gly-5-aminoethylsulfonamide isoquinoline)-Nva-Hol (RPR[Abu]E([Gly-X1])[Nva][hLeu])”, the “PKB-kinase (spa) Assay 1, % inhibition” value was determined as 20% and the “PKB-kinase (spa) Assay 2, % inhibition” value amounted to 47%.

For the compound “60020-19: Arg-Pro-Arg-Abu-Glu(5-aminoethylsulfonamide isoquinoline)-Orn-Phe (RPR[Abu]E(X1)[Orn]F)”, the “PKB-kinase (spa) Assay 1, % inhibition” value was 32% and the “PKB-kinase (spa) Assay 2, % inhibition” value is recorded as 26%.
